The results in this text go back to the supplement of paper PMC10567573.

The chains are these.
B1: PSD2 (parent)
chain: LTHFSRRYCQCNPDDSTSEDGIHT
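Also: lentivirally expressed fusions sorted by FACS into six bins by GFP to DsRed ratio, PSI derived from sequencing read proportions per bin multiplied by bin number.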

Variants of B1 are the subject of the data set. The data set can be described thus: protein stability index of a GFP-peptide fusion (GPS, HEK-293T) (PSI 1-6); higher = more stable. The note with it: c terminus: a fixed tail appended.
Regarding LTHFSRRYCQCNPDDSTSEDGYHT [I22Y], the protein stability index was found to be 3.29. For LTHFSRRYCQCNPDDSTSEDTIHT [G21T], the protein stability index was 4.09. With LTHFSRRYCQCNPDDSTSEDDIHT [G21D] the figure was 3.73.

Turning to LTHFSRRYCQCNPDDSTSEDIIHT [G21I], the protein stability index worked out at 2.63. Regarding LTHFSRRYCQCNPDDSTSEDCIHT [G21C], the protein stability index was found to be 2.91. With LTHFSRRYCQCNPDDSTSEDQIHT [G21Q], the protein stability index amounted to 3.25. As to LTHFSRRYCQCNPDDSTSEDFIHT [G21F], the protein stability index came out at 2.69.

LTHFSRRYCQCNPDDSTSEDWIHT [G21W]: the protein stability index is 1.96.

LTHFSRRYCQCNPDDSTSEDEIHT [G21E]: the protein stability index came out at 4.26. In the case of LTHFSRRYCQCNPDDSTSEDPIHT [G21P], the protein stability index was 3.57.

Regarding LTHFSRRYCQCNPDDSTSEDNIHT [G21N], the protein stability index worked out at 3.33.

With LTHFSRRYCQCNPDDSTSEDKIHT [G21K], the protein stability index was found to be 2.95.

For LTHFSRRYCQCNPDDSTSEDRIHT [G21R], the protein stability index is 2.93. In the case of LTHFSRRYCQCNPDDSTSEDSIHT [G21S], the protein stability index turned out to be 3.64. With LTHFSRRYCQCNPDDSTSEDAIHT [G21A] the figure was 3.57; with LTHFSRRYCQCNPDDSTSEDYIHT [G21Y], 2.68. As for LTHFSRRYCQCNPDDSTSEDVIHT [G21V], the protein stability index worked out at 2.79.

As for LTHFSRRYCQCNPDDSTSEDHIHT [G21H], the protein stability index is 3.34. As to LTHFSRRYCQCNPDDSTSEDMIHT [G21M], the protein stability index worked out at 2.86. With LTHFSRRYCQCNPDDSTSEDLIHT [G21L] the figure was 3.25; with LTHFSRRYCQCNPDDSTSEQGIHT [D20Q], 2.61; with LTHFSRRYCQCNPDDSTSEKGIHT [D20K], 2.74. With LTHFSRRYCQCNPDDSTSECGIHT [D20C] the figure was 3.98. With LTHFSRRYCQCNPDDSTSEHGIHT [D20H] the figure was 2.99; with LTHFSRRYCQCNPDDSTSELGIHT [D20L], 2.31; with LTHFSRRYCQCNPDDSTSEMGIHT [D20M], 2.65. LTHFSRRYCQCNPDDSTSERGIHT [D20R]: the protein stability index turned out to be 2.27. Regarding LTHFSRRYCQCNPDDSTSEGGIHT [D20G], the protein stability index is 2.71. Take LTHFSRRYCQCNPDDSTSEEGIHT [D20E]: the protein stability index was determined as 3.64. The value for LTHFSRRYCQCNPDDSTSEPGIHT [D20P] was 2.35; that for LTHFSRRYCQCNPDDSTSEWGIHT [D20W] was 1.46. The value for LTHFSRRYCQCNPDDSTSETGIHT [D20T] was 2.86; that for LTHFSRRYCQCNPDDSTSESGIHT [D20S] was 2.42; that for LTHFSRRYCQCNPDDSTSEIGIHT [D20I] was 1.97. The value for LTHFSRRYCQCNPDDSTSEFGIHT [D20F] was 2.69; that for LTHFSRRYCQCNPDDSTSEYGIHT [D20Y] was 1.81; that for LTHFSRRYCQCNPDDSTSENGIHT [D20N] was 2.5. Turning to LTHFSRRYCQCNPDDNTSEDGIHT [S16N], the protein stability index was 3.06. As for LTHFSRRYCQCNPDDHTSEDGIHT [S16H], the protein stability index was 2.95. For the variant LTHFSRRYCQCNPDDTTSEDGIHT [S16T], the protein stability index is 2.94. The value for LTHFSRRYCQCNPDDWTSEDGIHT [S16W] was 1.77. The value for LTHFSRRYCQCNPDDATSEDGIHT [S16A] was 2.57. With LTHFSRRYCQCNPDDLTSEDGIHT [S16L] the figure was 3.15; with LTHFSRRYCQCNPDDYTSEDGIHT [S16Y], 2.88.

In the case of LTHFSRRYCQCNPDDVTSEDGIHT [S16V], the protein stability index was determined as 3.15.

Consider LTHFSRRYCQCNPDDMTSEDGIHT [S16M], for which the protein stability index turned out to be 2.64. With LTHFSRRYCQCNPDDETSEDGIHT [S16E] the figure was 3.96; with LTHFSRRYCQCNPDDFTSEDGIHT [S16F], 2.77. With LTHFSRRYCQCNPDDCTSEDGIHT [S16C], the protein stability index was determined as 2.75. With LTHFSRRYCQCNPDDDTSEDGIHT [S16D] the figure was 3.17; with LTHFSRRYCQCNPDDPTSEDGIHT [S16P], 2.86. LTHFSRRYCQCNPDDKTSEDGIHT [S16K]: the protein stability index was found to be 3.48.

LTHFSRRYCQCNPDDRTSEDGIHT [S16R]: the protein stability index is 2.61. With LTHFSRRYCQCNPDDGTSEDGIHT [S16G] the figure was 3.09; with LTHFSRRYCQCNPDDQTSEDGIHT [S16Q], 3.82; with LTHFSRRYCQCNPDDITSEDGIHT [S16I], 3.18. Turning to LTHFSRRYCQCNPDFSTSEDGIHT [D15F], the protein stability index was determined as 3.21. The value for LTHFSRRYCQCNPDQSTSEDGIHT [D15Q] was 2.35. The value for LTHFSRRYCQCNPDRSTSEDGIHT [D15R] was 2.63. With LTHFSRRYCQCNPDMSTSEDGIHT [D15M] the figure was 3.21; with LTHFSRRYCQCNPDHSTSEDGIHT [D15H], 2.86. For LTHFSRRYCQCNPDYSTSEDGIHT [D15Y], the protein stability index stood at 3.23. As to LTHFSRRYCQCNPDLSTSEDGIHT [D15L], the protein stability index turned out to be 2.26.

In the case of LTHFSRRYCQCNPDGSTSEDGIHT [D15G], the protein stability index is 2.61. As to LTHFSRRYCQCNPDSSTSEDGIHT [D15S], the protein stability index worked out at 2.96. On to LTHFSRRYCQCNPDVSTSEDGIHT [D15V], for which the protein stability index was 2.47. Take LTHFSRRYCQCNPDKSTSEDGIHT [D15K]: the protein stability index is 2.28.

As for LTHFSRRYCQCNPDNSTSEDGIHT [D15N], the protein stability index worked out at 2.41. Consider LTHFSRRYCQCNPDASTSEDGIHT [D15A], for which the protein stability index was found to be 2.69. The value for LTHFSRRYCQCNPDPSTSEDGIHT [D15P] was 2.46. For the variant LTHFSRRYCQCNPDESTSEDGIHT [D15E], the protein stability index was found to be 4.1.

On to LTHFSRRYCQCNPDWSTSEDGIHT [D15W], for which the protein stability index was 2.14. The value for LTHFSRRYCQCNPDISTSEDGIHT [D15I] was 2.1; that for LTHFSRRYCQCNPDCSTSEDGIHT [D15C] was 2.91. Take LTHFSRRYCQCNPDTSTSEDGIHT [D15T]: the protein stability index was determined as 2.79.

Regarding LTHFSRRYCQCNPDDSTSIDGIHT [E19I], the protein stability index amounted to 2.2. With LTHFSRRYCQCNPDDSTSSDGIHT [E19S] the figure was 2.44; with LTHFSRRYCQCNPDDSTSADGIHT [E19A], 2.36; with LTHFSRRYCQCNPDDSTSMDGIHT [E19M], 1.94. As for LTHFSRRYCQCNPDDSTSCDGIHT [E19C], the protein stability index is 3.04. In the case of LTHFSRRYCQCNPDDSTSNDGIHT [E19N], the protein stability index was found to be 2.84. As for LTHFSRRYCQCNPDDSTSHDGIHT [E19H], the protein stability index came to 2.95. The value for LTHFSRRYCQCNPDDSTSQDGIHT [E19Q] was 3.39; that for LTHFSRRYCQCNPDDSTSKDGIHT [E19K] was 2.81; that for LTHFSRRYCQCNPDDSTSLDGIHT [E19L] was 2.15.

LTHFSRRYCQCNPDDSTSPDGIHT [E19P]: the protein stability index is 2.37.

In the case of LTHFSRRYCQCNPDDSTSYDGIHT [E19Y], the protein stability index is 1.93. With LTHFSRRYCQCNPDDSTSDDGIHT [E19D] the figure was 3.34; with LTHFSRRYCQCNPDDSTSTDGIHT [E19T], 3.02; with LTHFSRRYCQCNPDDSTSGDGIHT [E19G], 3.03.

On to LTHFSRRYCQCNPDDSTSFDGIHT [E19F], for which the protein stability index is 1.94.

As to LTHFSRRYCQCNPDDSTSRDGIHT [E19R], the protein stability index worked out at 1.59. With LTHFSRRYCQCNPDDSTSWDGIHT [E19W] the figure was 1.87; with LTHFSRRYCQCNPDDSTSVDGIHT [E19V], 3.33.
